Reference: the nanobody polyreactivity screen of Harvey et al. (2022)

Assay: yeast display, Sf9 membrane polyspecificity reagent, FACS + sequencing; frameworks hold sequencing errors
Outline: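 Synthetic nanobody libraries on Saccharomyces cerevisiae BJ5465 were galactose-induced for 36–48 hours, stained 1 hour at 4 °C with 10% biotinylated, detergent-solubilized Sf9 membrane reagent and enriched on streptavidin microbeads. FACS then separated cells into low and high (top ~1%) gates by anti-HA (expression) and streptavidin (reagent binding) fluorescence. Genes were colony-PCR amplified, MiSeq 2 × 250 sequenced and CDR-length filtered. A clone's polyreactivity label is that of its gate of origin.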

| Sequence | polyreactivity (PSR sort gate) |
| --- | --- |
| QVQLVESVGGLVQAGGSLRLSCDATGNTFRIYAMGWYIHAPGKERQLVAAISQSGGSTYYADSVKGRFTISRDNAKNTVYLQMHSLKPEDTAVYYCNRRFAPFWGRDGYWGQGTQVTVSS | high polyreactivity |
| QVQHVESGGGLLQAGGSLRLICAAYGSTFGTYAMGWYRQAPGKERELVATISIGGITYYADSVKGRFTNSRDNAKYTVYLQMNSLKPEVTAVYYCAKDVTDATSRSDPSGDDYWGQGTQVTVSS | low polyreactivity |
| QVQLVESGVGLVQAGGSLRLSCAASGRIFRGYAMGWYRQAPGKEREFVAAISWSGGDTYYADSVKGRFTISRDNAKNTVYLQMNSLKAEDTAVYYFATEYRLIPGPFVWPYDYWGQGTQVTVSS | high polyreactivity |
| QVQLVESGGGLVQAGGSLRLSCAASGRTFRTNAMGWYRQAPGKERELVAAITSDGTYYADSVKGRFTISRDNAKKTVYLQMNSLKPEDTAVYYCNVDDRETRDDYWGQGTQVTVSS | low polyreactivity |
| QVQLVESGGGLVQAGGSLRLSCAASGRILKYYDMGWYRQAPGKERELVAAISVSGTSTYYADSVKGRFTISRDNAKNTVYLQMNSLKPEDTAVYYCATATGRYSFDYWGQGTQVTVSS | low polyreactivity |
| QVQLVESGGGLVQAGGSLRLICAASGLTFDYYDMGWYRQAPGKERELVASITWRGSSTYYADSVKGRFTISRDNAKNTVYLQMISLKPEDTAVYYCAARYRWSEWRPYYYWGQGTQVTVSS | high polyreactivity |
| QVQLVESGGGLVQAGGSLRLSCAASGSTFKWTAMGWYRPAPGKERELVAAITGSGTGTYYADSVKGRFTISRDNAKNTVYLQMNSLKPEDTAVYYCAAYVYGYKYYYWGQGTQVTVSS | high polyreactivity |
| QVQLVESGGGLVQAGGSLRLSCAASGSIFVHNAMGWYRQAPGKERELVAAISSNGGRTYYADSVKGRFTISRDNAKNTVYLQMNSLKPEDTAVYYCNAPRFVGLNVYGYDYWGQGTQVTVSS | high polyreactivity |
| QVQLVESGGGLVKAGGSLRLSCAASGFTFYLNAMGWSRQAPGKERELVAGISWRGGRTYYADSVKGRFTISRDNAKITVYVQLNSLKPEDTAVYYCAAVTYSFQKTDYYWGQGTQVTVSA | high polyreactivity |
| QVQLVESGGGLVQAGGSLRLSCAASGFIISYYAMGWYRQAPGKDRELVAAISWRGGSTYYADSVKGRFTISRDNAKNTVYLQMNSLKPEDTAVYYCAADFLYGAEGNDYWGQGTQVTVSS | high polyreactivity |
| QVQLVESGGGLVQAGGSLRLSRAASGFIFSGNAMGWYRKAPGKERELVAVITTSGGSTYYADSVKGRFTISRDNAKNTVYLQMISMKPEDTAVYYCNKPGHRSGPPYDYWGQGTQVSVSS | high polyreactivity |
| QVQLVESGGGLVQAGGSLRLSCAASGSTFRSNAMGWYRQAPGKERELVASITSRGGSTYYADSVKGRFTISRDNAKNTVYLQMNSLKPEDTAVYYCATARSYLTYSYHYDYWGQGTQVTVSS | low polyreactivity |
| QVQLVESRGGLVQAGGSLRLSCAASGFTFYKYAMGCYRQAPGKERELVAAITGSGGSTYYADSVKGRFTISRDNAKNTVYLQMNSLKPEDTAVYYCATRYPTYYGYHKFDYWGQGTQVTVSS | high polyreactivity |
| QVQLVESGGGLVQAAGSLRLSCAASGRIFKLYAMGWYRQAPGKDRELVAGITASGGNTYYADSVKGRFTISRDNAKNTVYLLMNSLKPEDTAVYYCNADRYNKYWYDYWGQGTQVTVSS | high polyreactivity |
| QVQLVESGGGLVQAGGSLRLSCAASGFIFYYYDMGWYRQAPGKERELVAAITYDGGSTYYADSVKGRFTSSRDNAKNTVYLQMNSLKPEDTAVYYCNAVYGQYYDYWGQGTQVTVSS | low polyreactivity |
| QVQLVESGGGIVQAGGSLRLSCAASGRTFYANAMGWYRQAPGKERELVAAISTVGDGTYYADSVKGRFTISRDNAKYTVYLQMNSLKPEDTAVYYCAVRHRASGILYDYWRQGTQVTVSS | low polyreactivity |
| QVQLVESGGGLVQAGGSLRLSCAASGITFYRYAMGWYRQAPGKERELVAAISYRGGRTFYADSVKGRFTISRDNAKNTVYLQMNSLKPEDTAVYYCNARDYYEKMDYWGQGTQVTVSS | high polyreactivity |
| QVQLVESGGGLVKAGGSLRLSCAATGRIFEYNTMGWYRQAPGKERELVAAITGGTGSTYYADSVKGRFTISRDNAKNTVYLKMNSLKPEDTAVYYCAADYTSPAFYSSFDYWGQGTQVTVSS | low polyreactivity |
| QVQLVESGGGLVQAGGSLRLSCAASGIIFRGYAMGWYRQAPGKERELVARISITGGRTYYADSVKGRFTISRDNAKNTVYLQMNSLKPEDTAVYYCAAGKYVRTVRYDYWGQGTQVTVSS | high polyreactivity |
| QVQLEESGGGLVQAGGSLRLSCAASGFTFGRYPLGWYRQAPGKERELVAAITRGSGGTYYADSVKGRFTISRDNAKNTVYLQMNSLKPEDTAVYYCNTASYRGYDYWGQGTQVTVSS | high polyreactivity |
| QVQHVESGVGLVQAGGSLRLSCAASGSTFVPYAMGWYRQAPGKDRELVAAISSAGSTNYADSVKGRFTISRDNAKNTVYLQMNSLKPEDTAVYYCARDIQDTYEFDYWGQGTQVTVSS | low polyreactivity |
| QVQLVESCGGLVQAGGSLRLSCAASGSIIFPYALGWYRQAPGKERELVAAISWSGGRTYYADSVKGRFTISRDNAKNTVYLQMNSLKPEDTAVYYCAADGYPYFYGDFDYWGQGTQVNVSS | high polyreactivity |

| Sequence | polyreactivity (PSR sort gate) |
| --- | --- |
| QVQLVESGGGLVQAGGSLRLSCAASGITFSRNAMGWYRQAPGNERELVATITSGCSTNYADSVKGRFTISRDNAKNNVYLQMNSLKPEDTAIYYCNAVWNTFISGRSYDYWGQGTQVTVSS | low polyreactivity |
| QVQLVESGGGLVQAGGSLRLSCAASGRSFAPYAMGWSRQAPGKERELVAAISLSTTRTYYADSVKGRFTISRDNAKNTVYLQMNSLKPEDTAVYYCAAETFTGYFFLRHDYWGQGTQVTVSS | high polyreactivity |
| QVQLVESGGGLVQAGGSLRLSCAASGRTFYYYAMGWYRQAPGKERELVAAISGSGGSTYYADSVKGRFTISRDIAKNTVYLQMNSLKPEDTAVYYCAASGPRRRYDYWGQGTQVTVSS | high polyreactivity |
| QVQLVESGGGLVQEGGSLRLSCAASGRTFVSNAMGWYRQAPGKERELVAAIRYGGGRTYYADSVKGRFTISRDNAKNTVYLQMNSLKPEVTAVFYCAKRSVGGTGYYWGQGTQVTVSS | high polyreactivity |
| QVQLVESCGGLVQAGGSLRLSCAASGRTFFGYAMGGYRQAPGKERELVAAINWGGASTYYADSVKGRFTISRDNAKNTVYLQMNSLKPEETAVYYCAADSVPSRPTYGRYDYWGQGTQVTVSS | low polyreactivity |
| QVQLVESGGGLVQAGGSLSLSSAASGSTFHRNTMGWYRQAPGKERELVAGISLRGVRTYYADSVKGRFTISRDNAKNSVYLQMNSLKPEDTAVYYCAGGGPYTRNFKLGYWGQGTQVSVSS | high polyreactivity |
| QVQLVESGGGLVQAGGSLRLSCAASGRIFYFNAMGWYRQAPGKERELVADMSSGGRTNYADSVKGRFTISRDNEKNSVYLQMNSLKPEDSAVYYWIAEPYTSSVGYRGYDFDDWGQGTQVTVSS | low polyreactivity |
| QVQLVESGGGLVQAGGSLRLSCAASGRIFPTYTMGWYRQAPGKERELVAGISYSGTSTSYADSVKGRFTISRDNAKNTVYLQMNSLKPEDTAVYYCAAKYYGRSFYYGYDYWGQGTQVTVSS | low polyreactivity |
| QVQLGESGGGLVQAGGSLRLSCAASGSTFDYYAMGWYRQAPGKERELVAGITSDGSTYYADSVKGRFTISRDNAKNTVYLQMNSLKPEDTAVYYCNKDSTGDGYEYWGQGTQVTVSS | low polyreactivity |
| QVQLVESGGGLVQAGGSLRLSCAASGSIFSYYAMGWYRQAPGKEREFVAAITKSGGSTYYADSVKGRFTISRDNAKNTVYLQMNSLKPEDTAVYYCAVRYKLYYYRYDYWGQGTQVTVSS | low polyreactivity |
| QVQLVESGGGLVQAGGSLRLSCAASGRILAGYAMGWYRQAPGKERELVAVISVGTGSTYYADSVKGRFTISRDNAKNTVYLQMNSLKPEDTAVYYCAAVTAITSLRMGYWGQGTQVTVSS | low polyreactivity |
| QVQLVESGGGLVQAGGSLRLSCAASGRTFEGNAMGWYRQAPGKERELVAAISWSGGSTYYANSVKGRFTISRDNAKNTVYLQMNSLKPEDTAVYYCAAVPVHTGSLYWGFTTGYDYWGQGTQVTVSS | low polyreactivity |
| QFQLVESGGGLVQAGGSLRLSCAASGRTFTYNAMGWYRQAPGKERELVAAINSGGSTNYADSVKGRFTISRDNAKNTVYLQMNSLKPEDTAVYYCNAGFGFGSSRYGTRYYYWGQGTQVTVSS | low polyreactivity |
| QVQLVESGGGLVQAGGSLRLSCAASGSTFPPNAMGWYRQSPGKERELVAVISYSDGSTYYADSVKGRFTISRDNAKNTVYLQMNSLKPEDTAVYYCAAYCGYGGVSMYYWGQGTQVTVSS | low polyreactivity |
| QVQLVESGGGLVQAGGRLRLSCAASGSTFTHYAMGWYRQAPGKERELVAAISSGGSTYYADSVKGRFTISRDNAKNTVYLQMNSLKPEDTAVYYCAADYDWHDWWYPHDYWGQGTQVTVSS | low polyreactivity |
| QVQLVESGGGLVQAGGSLRISCAASGRIYNRNAMGWYRQAPGKERELVAAIRSDGTTNYADSVKGRFTISRDNAKNTVYLQMISLKPEDTAVYYCNAEEGYHWWIIPEEDDYWGQGTQVTVSS | low polyreactivity |
| QDQLVESWGGLVQAGGSLRLICAASGFIFRSYAMGWYRQAPGKERELVAAITYSGGRTYYADSVKGRFTISRDNAKNTVYLQMNSLKPEDTAVYYCAAETRVDFYWGQGTQVTVSS | high polyreactivity |
| QVQLVESGGGLVQAGGSLRLSCAHSGFTFTYYAMGWYRQAPGKEREFVAGISRSGGSTYYADSVKGRFTISRDIAKNTVYLQMNSLKPEDTAVYYCAATAYSPRGKRYDSWGQGTQVTVSS | high polyreactivity |
| QLQLVESGGGLVQAGGSLRLSCAASVRTFNSYAMGRYRQAPGKERELVAGISTSGDNTYYADSVKGRFTISRDNAKNTVFLQMNSLKPEDSAVYYCATQFPPSTIYDYWGQGTQVTVSS | low polyreactivity |
| QVQLVESGGGLVQAGGSLRLSCAASGSIFLPNAMGWYRQAPGKERELVAVITGGGSTKYADSVKGRFTISRDNAKNTVYLQMNSLKPEDTAVYYCNAQSPVDPSCDYWGRGTQVTVSS | low polyreactivity |
| QVQLVESGGGLVQAGGRLRLSCAASGRTFATNTMGWYIQAPGKEREFVAAISRGGVSTSYADSVKGRFTISRDNAKNTVYLQMNSLKPEDTAVYYCAANHYGFNRNHRHTYVYWGQGTQVTVSS | high polyreactivity |
